In the DeepSol protein solubility set:

Assay: soluble on expression in E. coli; label from the status in PepcDB or PDB records

| Sequence | soluble on expression in E. coli |
| --- | --- |
| KCGFSYGVGFNVFNYKAVVTKYNNPEGIIYNNHTGLAANKGYYEGMDIGEIWGYRADDLFLSNREIDDYLRNVNLTAFKSNDLWRRGDLKYIDSNGDGRVDGGKGTLADHGDLQIIGNTTPKYSFGINLNLGYKGFEVSTLLQGVAKRDFPISGSNYMFGGNNYNFKEHLDYFSTENPNGYLPRLTGWKDDKDFLVNTGYNTTRYLLNAAYMRMKNLTVAYTFNKKQLKHIGISNLKVYVTCDNLFTVTKLPKQFDPETLNQVNMSAGGDAQNTAPGLTSPMKQNGNGMVYPMNRNFVFGLDFTF | not soluble |
| KDWRDKDQSDGFGKVYVTEKVAQIKQIPFDASKLHSSPQMAAQHNMVDDGSGKVEIWRVENNGRIQVDQNSYGEFYGGDCYIILYTYPRGQIIYTWQGANATRDELTTSAFLTVQLDRSLGGQAVQIRVSQGKEPVHLLSLFKDKPLIIYKNGTSKKGGQAPAPPTRLFQVRRNLASITRIVEVDVDANSLNSNDVFVLKLPQNSGYIWVGKGASQEEEKGAEYVASVLKCKTLRIQEGEEPEEFWNSLGGKKDYQTSPLLETQAEDHPPRLYGCSNKTGRFVIEEIPGEFTQDDLAEDDVMLLDAWEQIFIWIGKDANEVEKKESLKSAKMYLETDPSGRDKRTPIVIIKQGHEPPTFTGWFLGWDSSKW | soluble |
| KDWSLDVTANISALRNKVKSLGEGVQPIKAEVMMSGSFNDRPTITKPGLPIGTFWGYVVEGFDNDGNFIFQDNNGSVNGVLTGKPDGKIDENDKTDIGNPHPDFTYGLNINVGYKNWDLTAFFQGTQGNDIFALMKYDWYFGGANSATLKDAFYNSWTPQNPNAEAPKLNSKNSSGINSLPSTFYVEDGSYFRCKNLQIGYSFNKKLLQKFHIESFRIYAGVQNLFTITKYPLYDPEVSSNVLFDRGVDGFWQAQESPHEATMNSRVYNLGVNLTF | not soluble |
| KETAAAKFERQHMDSGGGGSGHMENGYTYEDYKNTAEWLLSHTKHRPQVAIICGSGLGGLTDKLTQAQIFDYGEIPNFPRSTVPGHAGRLVFGFLNGRACVMMQGRFHMYEGYPLWKVTFPVRVFHLLGVDTLVVTNAAGGLNPKFEVGDIMLIRDHINLPGFSGQNPLRGPNDERFGDRFPAMSDAYDRTMRQRALSTWKQMGEQRELQEGTYVMVAGPSFQTVAECRVLQKLGADAVGMSTVPEVIVARHCGLRVFGFSLITDKVIMDYESLEKANHEEVLAAGKQAAQKLEQFVSILMASIPLPDKAS | soluble |
| KGDWAWQAGFSLSGVKNEITDMKGVEDIKDNTINREGEAIGSYYGLKAIGIYRTQADLDRVNANGQKILQNNQEPQLGDIMYEDIDNNGNINDADRTIIGNPFPKMQYSFNLGFSYKDFDVNTFWQGIAGVYRYNWDETTISNGGNKTSRWLDRWSESNPNGSMPRLGGTINNNYSSFWLTKGDYLRLKNLEIGYTFRQREFLTKLGVQSIRLYLAGTNLLTFTSLDDYDPEKLSTDSRNDVHPNTRTYSFGVNVKF | not soluble |
| KGESYKGKVAVASVVLNRTEKKGFPDTIRGVIYQKNAFEPVANGSINQKPDKESIEAAEEALSSKNRETDAIFFYNPKTASDNWIRSRKIVEKIGRHVFAV | not soluble |
| KIGERMLGTDPVTGESVVAKMGRYGAMVQKGRTDKENGIKAQFASLQPGQSIESITLEEALELFLLPKKLGQYEDADVMVAVGRFGPYIKHAGKFVGLPKDTEPLSVSLDDAIKYIADKREKEEKSLIKGFAEDPEMEIRTGRFGVYIKYKGKNYKVPKTVEDPEKLTLEECLKYVEEGETKPAKGKKKAPAKKTSAKKTAKK | not soluble |
| KKNNVYPELEAFIGKEIIFSDKNFNTVGNKAFKDQFLLISYVDSGNCTPCSLEKMQYMKTNKRRLLDTHTGVLMIVHEKDTFTVNEVFRQMHVSYPIFFDSLGCFKKENGIFDNPLYQDFVIDRSNKVVWLGNPLRNKQSWQQYEKAISMLMD | not soluble |
| KKPMFLCVLSSTKTAHIPKLSAAGKTAELTDYTPAGDAELMETGNIISVPVLPMTPPYDTPTPAIMTRSALKLTDAPYHFINSGLIVTPDVPCIDLKANPGEDIREPVAVMDVQGIYERAKLLAKRLRNQADHVVIGESIPGGTTTAMGVLMALGYNGNVSSSADENPLELKKQVVEEGMKASGLTFGCLKDDPMKAIACMGDPMMPAVAGLVAGFQDTDTSVVLAGGTQMAAVYALIKHMGLNTEKIAIATTRYVVEDKSANFIQLTTTLGVPVVYVADPGFGKSSMKGLHRYETGTIKEGAGAGGAMYLAG | not soluble |
| KNCCVYDMATNTLVDAAPYGERSSDYQLATLFHNPGNNNEYLLSQVIEVLDDICQSKEIASETKTKAHWLLSYEPRLPDGDKVKRLLSILEQTLEAFSK | not soluble |
| KNSINTIKLIDDIIALHNDPKGNKLLWNDNWQDKIINRDLANIFEKIDESVSELGGLEMYQEMVGVNPYDPTEPVCGLSAQNIFKLMTEGEHAVDPVEMAQTGKIDGNEFAESVDQLSSAKNYVALVNDRRLGHMFLIDIPSNDQETVGYIYQSDLGQGALPPLKIADWLNSRGKDAVSLNKLKKLLSREFNLLSDDEKRALISETLDIHKDVSNVELDRIKRDRGVDIYLTEYDVNNFYENIETLKSKLSNYDKKLSKPK | soluble |
| KPKSAVAPPGAPKKEHVNVVFIGHVDAGKSTIGGQIMYLTGMVDERTLEKYEREAKEKNRETWYLSWALDTNQEERDKGKTVEVGRAYFETEKKHFTILDAPGHKSFVPNMIGGASQADLAVLVISARKGEFETGFEKGGQTREHAMLAKTAGVKHLIVLINKMDDPTVNWSNERYEECKEKLVPFLKKVGFNPKKDIHFMPCSGLTGANLKEQSDFCPWYIGLPFIPYLDNLPNFNRSVDGPIRLPIVDKYKDMGTVVLGKLESGSICKGQQLVMMPNKHNVEVLGILSDDVETDSVAPGENLKIRLKGIEEEEILPGFILCDLNNLCHSGRTFDAQIVIIEHKSIICPGYNAVLHIHTCIEEVEITALICLVDKKSGEKSKTRPRFVKQDQVCIARLRTAGTICLETFKDFPQMGRFTLRDEGKTIAIGKVLKLVPEKD | soluble |
| KPYQVVGEKQEILNLIDNTTLDVSFTLPVSYAESVSLSALKNAEMWVTMDSEPSKRIPGKFKEISTQPNIDTNSYEAIVTITRPTDRNLLTGMTGQVHIAKQNKSNAMTLPTSAWVNKQEKQGEVWVMDSSTQQVSKVTLSLNESGAIESGLDNNDYVVIAGVERLVEGQVVKAWIREEGI | not soluble |
| KPYVSEDSRVYSPQEPTLVVKSVDNSVSIDVTSKYNVNLYRNGELIQKNVIAQSYSDTPTGFACYLAESINDKGFRSNPSQPVCVGEEIRIKLDGEYQPLKDNVSVVTVSKDSGIVKGAESFTAPVTGTYQFDAWYNNNLGQLNTGITNTVKLLEVLDDAGKVVGQGYLQMGHIGENQGMRYSTPIEVALEQGKTYQFALKDHFNMSYLTSNETYIYAGGIEGEKNEAQIADIRITPLM | not soluble |
| KRFEFVGWGSRQLIEFLHSLGKDTSEMISRYDVSDTIAKYISKEGLLDPSNKKKVVCDKRLVLLFGTRTIFRMKVYDLLEKHYKENQD | soluble |
| KRKDITLLNPIVRKFQYGQHTVTLETGMMARQATAAVMVSMDDTAVFVTVVGQKKAKPGQDFFPLTVNYQERTYAAGRIPGSFFRREGRPSEGETLIARLIDRPIRPLFPEGFVNEVQVIATVVSVNPQVNPDIVAMIGASAALSLSGIPFNGPIGAARVGYINDQYVLNPTQDELKESKLDLVVAGTEAAVLMVESEAQLLSEDQMLGAVVFGHEQQQVVIQNINELVKEAGKPRWDWQPEPVNEALNARVAALAEARLSDAYRITDKQERYAQVDVIKSETIATLLAEDETLDENELGEILHAIEKNVVRSRVLAGEPRIDGREKDMIRGLDVRTGVLPRTHGSALFTRGETQALVTATLGTARDAQVLDELMGERTDTFLFHYNFPPYSVGETGMVGSPKRREIGHGRLAKRGVLAVMPDMDKFPYTVRVVSEITESNGSSSMASVCGASLALMDAGVPIKAAVAGIAMGLVKEGDNYVVLSDILGDEDHLGDMDFKVAGSRDGISALQMDIKIEGITKEIMQVALNQAKGARLHILGVMEQAINAPRGDISEFAPRIHTIKINPDKIKDVIGKGGSVIRALTEETGTTIEIEDDGTVKIAATDGEKAKHAIRRIEEITAEIEVGRVYTGKVTRIVDFGAFVAIGGGKEGLVHISQIADKRVEKVTDYLQMGQEVPVKVLEVDRQGRIRLSIKEATEQSQPAAAPEAPAAEQGEHHHHHH | soluble |
| KRSNSIKRNPNAPVVRRGWLYKQDSTGMKLWKKRWFVLSDLCLFYYRDEKEEGILGSILLPSFQIALLTSEDHINRKYAFKAAHPNMRTYYFCTDTGKEMELWMKAMLDAALVQT | soluble |
| KSCCSCCPAECEKCAKDCVCKGGEAAEAEAEKCSCCQ | soluble |
| KTIYLQSPYFIPDASLLEAIKIAALSGVDVRVMIPNKPDHAFVYRATTNYAGELMETGAKIFIYDNGFIHAKTLVVDGEIASVGTANMDFRSFRLNFEVNAFIYEKKMVQKLEDAFLEDILKSYQLTPELYAKR | not soluble |
| KTSILLLLMIATALPSFGGNGNGNGTDSLQATRYVTRATMYGVGYTNVFDTYLSPQEYKGIEFRISRETMRMTTLGDGNVSVQNFFQANLAYTHNRVDNNNTFAGLVNWNYGLHYQFRITDNFKLLAGGMGDFNGGFVYNLRNTNNPASARAYINLDASGMAIWHTKIKNYPLALRYQVNLPVIGVMFSPHYGQSYYEIFTLGHASGVIRFTSLHNQPALRQMLSVDFPIRYTKMRLSYLCDLQQSKLNGIKTHTYSQVFMVGFVHDLFRIRNKNGTPLPPAVRAY | not soluble |
| KTVPSGQAGQGFAEKGPWKKLGLTYTQKTEIQRIHHNTRAEMDKVLTTEQKEQLKAAMQERQTQRSQGEGRGKWKKDIFTSLNLTDAQKSQIQEIRELSRKQMEAVLTPAQRQQLQQMEQNWKSRRQQGNSN | not soluble |
| KVKFTEEEDLKLQQLVMRYGAKDWIRISQLMITRNPRQCRERWNNYINPALRTDPWSPEEDMLLDQKYAEYGPKWNKISKFLKNRSDNNIRNRWMMIARHRAKHQKS | soluble |
| KVVFAKEQPAHREVQAEAGASATLSCEVAQAQTEVTWYKDGKKLSSSSKVRVEAVGCTRRLVVQQAGQAEAGEYSCEAGGQQLSFRLQVAGQCFG | soluble |
| LAEGEEQIVARDGNSWLVDGVTPITDVMRSFAIEEFPQQQNYETIAGFMMYMLRKIPRRTDSVVYAGYKFEVVDIDNYKVDQLLVSRVE | not soluble |
| LAIAAIRNLLIKNDIEILAELTEGGSAVQRVETLKPDIVIIDVDIPGVNGIQVLETLRKRQYSGIIIIVSAKNDHFYGKHCADAGANGFVSKKEGMNNIIAAIEAAKNGYCYFPFSLNRFVGSLTSDQQKLDSLSKQEISVMRYILDGKDNNDIAEKMFISNKTVSTYKSRLMEKLECKSLMDLYTFAQ | not soluble |
| LATMKDVARLAGVSTSTVSHVINKDRFVSEAITAKVEAAIKELNYAPSALARSLKLNQTHTIGMLITASTNPFYSELVRGVERSCFERGYSLVLCNTEGDEQRMNRNLETLMQKRVDGLLLLCTETHQPSREIMQRYPTVPTVMMDWAPFDGDSDLIQDNSLLGGDLATQYLIDKGHTRIACITGPLDKTPARLRLEGYRAAMKRAGLNIPDGYEVTGDFEFNGGFDAMRQLLSHPLRPQAVFTGNDAMAVGVYQALYQAELQVPQDIAVIGYDDIELASFMTPPLTTIHQPKDELGELAIDVLIHRITQPTLQQQRLQLTPILMERGSA | soluble |
| LDIQMTQSPSSLSASLGERVSLTCRASQEISGYLYWLQQKPDGTIKRLIYAGSTLDSGVPKRFSGSRSGSDYSLTISSLESEDFADYYCLQYASYPRTFGGGTKVEIKRTVAAPSVFIFPPSDEQLKSGTASVVCLLNNFYPREAKVQWKVDNALQSGNSQESVTEQDSKDSTYSLSSTLTLSKADYEKHKVYACEVTHQGLSSPVTKSFNRGECGAGA | soluble |
